Consider 2 molecules from patent publication US20200268901A1 (Bristol-Myers Squibb, published 2020).

Test [1] deals with T1, hCD73-his (full length extracellular domain of human CD73, residues 26-546, C-terminal polyhistidine tag) (human, UniProt P21589 26-546).
T1 construct: range 26-546; not shown: C-terminal polyhistidine tag
T1 sequence (looked up): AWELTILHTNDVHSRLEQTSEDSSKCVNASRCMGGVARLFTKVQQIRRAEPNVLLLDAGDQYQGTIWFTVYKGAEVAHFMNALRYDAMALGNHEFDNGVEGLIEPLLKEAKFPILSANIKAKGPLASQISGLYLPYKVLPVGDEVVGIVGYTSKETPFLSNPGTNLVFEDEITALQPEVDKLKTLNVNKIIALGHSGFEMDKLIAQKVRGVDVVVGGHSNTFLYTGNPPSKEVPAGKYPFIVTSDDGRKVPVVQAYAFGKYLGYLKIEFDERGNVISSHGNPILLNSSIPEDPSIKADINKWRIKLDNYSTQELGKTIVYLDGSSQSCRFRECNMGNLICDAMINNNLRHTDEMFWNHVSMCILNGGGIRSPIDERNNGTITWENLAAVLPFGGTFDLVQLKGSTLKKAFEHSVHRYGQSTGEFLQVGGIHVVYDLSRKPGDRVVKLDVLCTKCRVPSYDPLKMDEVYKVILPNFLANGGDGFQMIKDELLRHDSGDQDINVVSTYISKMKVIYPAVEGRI
The experiment in a line: SEC, 5.5 uM each; peak 4: free mAb. Here is the method: (§1) Isocratic separations were performed on a Shodex PROTEIN KW-803 column connected to an Prominence Shimadzu UFLC in buffer containing 200 mM K₂HPO₄, 150 mM NaCl, pH 6.8, containing 0.02% Na azide (0.1 μm filtered) running at 0.5 mL/min. Samples were injected onto the column using a SIL-20AC Prominence Shimadzu autosampler, and data were obtained from three online detectors connected in series: a Prominence SPD-20AD diode array UV/vis spectrophotometer followed by a Wyatt miniDAWN™ TREOS Multi-Angle Light Scattering Detector then a Wyatt Optilab T-rEX Refractive Index Detector. Data were collected and analyzed using Astra (Wyatt) and Labsolutions (Shimadzu) software.
(§2) CD73.4 antibodies having the heavy chain constant regions set forth in Table 14 were also tested for formation of high molecular weight complexes by SEC-MALS and DLS experiments, as described in Example 3.
A general note: Size exclusion chromatography separates by hydrodynamic size, large species first.

In test [2] the target is T2, human CD73 on Calu6 cells (human, UniProt P21589 27-549).
T2 sequence (looked up): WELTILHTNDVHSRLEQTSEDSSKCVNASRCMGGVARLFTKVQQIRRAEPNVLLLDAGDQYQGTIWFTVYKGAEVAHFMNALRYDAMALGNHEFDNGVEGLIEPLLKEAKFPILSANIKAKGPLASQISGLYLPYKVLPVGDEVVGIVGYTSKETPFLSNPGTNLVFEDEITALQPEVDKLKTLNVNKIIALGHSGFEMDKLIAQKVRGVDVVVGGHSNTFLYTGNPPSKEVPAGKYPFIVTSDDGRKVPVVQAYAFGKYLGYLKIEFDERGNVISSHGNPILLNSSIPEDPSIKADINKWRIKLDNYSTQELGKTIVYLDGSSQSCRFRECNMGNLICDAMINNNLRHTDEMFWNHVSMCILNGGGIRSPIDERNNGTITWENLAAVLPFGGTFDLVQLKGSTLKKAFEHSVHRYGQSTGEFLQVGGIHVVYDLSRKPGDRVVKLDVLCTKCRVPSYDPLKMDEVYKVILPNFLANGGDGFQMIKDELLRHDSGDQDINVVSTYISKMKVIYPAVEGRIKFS
The experiment in a line: cell-based or functional assay.

Test [3] addresses T1, hCD73-his (full length extracellular …). The experiment in a line: SEC, 5.5 uM each; peak 3: about 1:1 complexes. Here is the method:
as §1, with “The oligomeric state of CD73/antibody complexes were examined by size-exclusion chromatography coupled to an in-line multi-angle light scattering detector (SEC-MALS). Isocratic” for “Isocratic”
as §2

Test [4] deals with T2, human CD73 on Calu6 cells. The experiment in a line: cell-based or functional assay. This is another data set of the same source.
The target in test [5] is T1, hCD73-his (full length extracellular …). The experiment in a line: SEC, 5.5 uM each; peak 1: complexes larger than 4:4. The protocol: as §1, with “The oligomeric state of CD73/antibody complexes were examined by size-exclusion chromatography coupled to an in-line multi-angle light scattering detector (SEC-MALS). Isocratic” for “Isocratic”
as §2

The target in test [6] is T2, human CD73 on Calu6 cells. The experiment in a line: cell-based or functional assay. This is another data set of the same source.
For test [7], the target named is T1, hCD73-his (full length extracellular …). The experiment in a line: SEC, 5.5 uM each; peak 2: about 2:2 complexes. The protocol:
as §1, with “The oligomeric state of CD73/antibody complexes were examined by size-exclusion chromatography coupled to an in-line multi-angle light scattering detector (SEC-MALS). Isocratic” for “Isocratic”
as §2

Where “and” joins values, the source holds several entries; their conditions need not be identical. Identical values can stand only once. Like-named read-outs stand apart in the source and are kept apart here.

B1: CD73.4-IgG2-C219S (antibody)
heavy: QVQLVESGGGVVQPGRSLRLSCAASGFTFSNYGMHWVRQAPGKGLEWVAVILYDGSNKYYPDSVKGRFTISRDNSKNTLYLQMNSLRAEDTAVYYCARGGSSWYPDSFDIWGQGTMVTVSSASTKGPSVFPLAPCSRSTSESTAALGCLVKDYFPEPVTVSWNSGALTSGVHTFPAVLQSSGLYSLSSVVTVPSSNFGTQTYTCNVDHKPSNTKVDKTVERKSCVECPPCPAPPVAGPSVFLFPPKPKDTLMISRTPEVTCVVVDVSHEDPEVQFNWYVDGVEVHNAKTKPREEQFNSTFRVVSVLTVVHQDWLNGKEYKCKVSNKGLPAPIEKTISKTKGQPREPQVYTLPPSREEMTKNQVSLTCLVKGFYPSDIAVEWESNGQPENNYKTTPPMLDSDGSFFLYSKLTVDKSRWQQGNVFSCSVMHEALHNHYTQKSLSLSPG
light: not shown
notes: anti-CD73; also called CD73.4-IgG2.3; CD73.4-IgG2CS
In the case of B1, the “UV % Peak4 (16.7-19.3 min)” value in test [1] is 28.6%. In addition, in test [2], the “T1/2 (hr) of CD73 internalization, Calu6 cells” value (“T1/2 (hr) … Calu6 cells” below) was 0.372 h and 0.364 h; the “T1/2 (hr) of CD73 internalization, NCI-H292 cells” value (“T1/2 (hr) … NCI-H292 cells” for short) is 0.287 h and 0.284 h. For the same molecule, in test [3], the “UV % Peak3 (15.1-16.7 min)” value is 7.7%. In addition, in test [4], the “% internalization, Calu6 cells” value was 88%; the “% internalization, H228 cells” value is 94%; the “% internalization, H2030 cells” value was found to be 89%; the “% internalization, HCC15 cells” value came to 94%. Besides, in test [4], the “T1/2 min of internalization, Calu6 cells” value is 6.5 min; the “T1/2 min of internalization, H228 cells” value was 13.8 min; the “T1/2 min of internalization, H2030 cells” value came to 3.7 min; the “T1/2 min of internalization, HCC15 cells” value amounted to 3.1 min. Moreover, the “UV % Peak1 (<12.9 min)” value in test [5] was 37%. In addition, in test [6], the “T1/2 (hr) … Calu6 cells” value was 0.6 h; the “T1/2 (hr) … NCI-H292 cells” value was 0.277 h; the “Ymax (%) of CD73 internalization, Calu6 cells” value came to 75.6%; the “Ymax (%) of CD73 internalization, NCI-H292 cells” value was found to be 78.4%.

B2: CD73.4-IgG2.3-plusGGG (antibody)
heavy: QVQLVESGGGVVQPGRSLRLSCAASGFTFSNYGMHWVRQAPGKGLEWVAVILYDGSNKYYPDSVKGRFTISRDNSKNTLYLQMNSLRAEDTAVYYCARGGSSWYPDSFDIWGQGTMVTVSSASTKGPSVFPLAPCSRSTSESTAALGCLVKDYFPEPVTVSWNSGALTSGVHTFPAVLQSSGLYSLSSVVTVPSSNFGTQTYTCNVDHKPSNTKVDKTVERKSCVEGGGCPPCPAPPVAGPSVFLFPPKPKDTLMISRTPEVTCVVVDVSHEDPEVQFNWYVDGVEVHNAKTKPREEQFNSTFRVVSVLTVVHQDWLNGKEYKCKVSNKGLPAPIEKTISKTKGQPREPQVYTLPPSREEMTKNQVSLTCLVKGFYPSDIAVEWESNGQPENNYKTTPPMLDSDGSFFLYSKLTVDKSRWQQGNVFSCSVMHEALHNHYTQKSLSLSPGK
light: not shown
On to B2, for which the “UV % Peak4 (16.7-19.3 min)” value in test [1] turned out to be 34.9%. For the same molecule, in test [2], the “T1/2 (hr) … Calu6 cells” value amounted to 0.336 h; the “T1/2 (hr) … NCI-H292 cells” value is 0.271 h; the “Ymax (%) of CD73 internalization, Calu6 cells” value worked out at 81.7%; the “Ymax (%) of CD73 internalization, NCI-H292 cells” value came to 91.6%. Moreover, the “UV % Peak2 (12.9-15.1 min)” value in test [7] was determined as 23.9%. Further, the “UV % Peak1 (<12.9 min)” value in test [5] stood at 30%.
